Where a chain is given by its changes, count along the chain named. Names may count otherwise.
T1: mouse JIP3 186-505_L383A/E386A (mouse, UniProt Q9ESN9-5 186-505, L383A | E386A)
T1 construct: JIP3, mouse cDNA, isoform 3a, UniProt Q9ESN9-5, residues 186-505 with L383A and E386A; also called Spindly motif mutant (L383A/E386A); source: SoluBL21 E. coli, purified (Ni-NTA, TEV, Strep-Tactin, SEC); not shown: His6, N-terminal, cleaved; MBP, N-terminal, cleaved
T1 sequence (looked up): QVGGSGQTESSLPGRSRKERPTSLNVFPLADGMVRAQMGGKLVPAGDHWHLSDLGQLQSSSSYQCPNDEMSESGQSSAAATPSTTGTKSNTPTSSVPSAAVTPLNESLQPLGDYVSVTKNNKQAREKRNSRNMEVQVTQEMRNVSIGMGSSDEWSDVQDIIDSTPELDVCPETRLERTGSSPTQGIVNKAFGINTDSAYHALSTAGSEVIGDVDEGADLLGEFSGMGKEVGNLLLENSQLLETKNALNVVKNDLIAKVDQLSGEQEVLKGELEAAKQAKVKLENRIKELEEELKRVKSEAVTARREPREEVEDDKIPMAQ

T2: mouse JIP3^185-505 (JIP3 residues 186-505) (mouse, UniProt Q9ESN9-5 186-505)
T2 construct: 2CT vector; also called JIP3 fragment containing the Spindly motif and LZII; JIP3 186-505; source: SoluBL21 E. coli, purified (Ni-NTA, TEV, Strep-Tactin, SEC); not shown: His6, N-terminal, cleaved; MBP, N-terminal, cleaved
T2 sequence (looked up): T1 sequence (looked up) with A198L, A201E

T3: LIS1 (full length human) (human, UniProt P43034 1-410)
T3 construct: LIS1, human, full length, UniProt P43034 (printed for the AlphaFold2 prediction); A version with an additional C-terminal SNAPf tag also exists; also called wild-type LIS1; source: Sf9, purified (IgG Sepharose, TEV, SEC); not shown: ZZ, N-terminal, cleaved
T3 sequence (looked up): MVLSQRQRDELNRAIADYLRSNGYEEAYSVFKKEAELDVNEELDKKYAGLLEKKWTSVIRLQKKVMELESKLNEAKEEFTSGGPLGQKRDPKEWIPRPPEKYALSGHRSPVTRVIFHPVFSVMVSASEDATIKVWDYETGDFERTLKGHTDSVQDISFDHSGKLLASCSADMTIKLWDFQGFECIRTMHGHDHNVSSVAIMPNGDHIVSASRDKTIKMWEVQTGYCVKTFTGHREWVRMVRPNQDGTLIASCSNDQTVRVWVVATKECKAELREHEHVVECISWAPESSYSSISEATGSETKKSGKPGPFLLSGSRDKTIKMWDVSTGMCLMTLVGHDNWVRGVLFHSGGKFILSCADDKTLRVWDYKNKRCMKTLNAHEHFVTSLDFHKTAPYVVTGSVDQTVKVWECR

B1: LIS1-N (residues 1-90) (domain or fragment, human, UniProt P43034 1-90, looked up)
chain: MVLSQRQRDELNRAIADYLRSNGYEEAYSVFKKEAELDVNEELDKKYAGLLEKKWTSVIRLQKKVMELESKLNEAKEEFTSGGPLGQKRD
notes: LIS1, human, residues 1-90 (LisH domain and coiled coil); source: Sf9, purified (IgG Sepharose, TEV, SEC); not shown: ZZ, N-terminal, cleaved
B2: MBP-DIC-N (dynein intermediate chain 1-76) (domain or fragment, human, UniProt Q13409 1-76, looked up)
chain: MSDKSELKAELERKKQRLAQIREEKKRKEEERKKKETDQKKEAVAPVQEESDLEKKRREAEALLQSMGLTPESPIV
notes: dynein intermediate chain, residues 1-76; UniProt Q13409 is printed for DIC in the AlphaFold2 predictions; 2CT vector; the general protocol includes a TEV step, but this construct is named and used as MBP-DIC-N on amylose resin; also called DIC-N construct; source: SoluBL21 E. coli, purified; not shown: MBP, N-terminal, kept
B3: human Arf6 (12-175_Q67L) (domain or fragment, UniProt P62330 12-175, looked up)
chain: KEMRILMLGLDAAGKTTILYKLKLGQSVTTIPTVGFNVETVTYKNVKFNVWDVGGLDKIRPLWRHYYTGTQGLIFVVDCADRDRIDEARQELHRIINDREMRDAIILIFANKQDLPDAMKPHEIQEKLGLTRIRDRNWYVQPSCATSGDGLYEGLTWLTSNYKS
notes: Arf6, human, residues 12-175 with Q67L; pGEX-6P-1 vector: N-terminal GST, Prescission site, C-terminal 6xHis; source: SoluBL21 E. coli, purified (Ni-NTA, glutathione resin, SEC)
B4: GCN4-WD40-SNAP (other, human)
chain: GSGSVKQLEDKVEELLSKNAHLENEVARLKKLVSGGPLGQKRDPKEWIPRPPEKYALSGHRSPVTRVIFHPVFSVMVSASEDATIKVWDYETGDFERTLKGHTDSVQDISFDHSGKLLASCSADMTIKLWDFQGFECIRTMHGHDHNVSSVAIMPNGDHIVSASRDKTIKMWEVQTGYCVKTFTGHREWVRMVRPNQDGTLIASCSNDQTVRVWVVATKECKAELREHEHVVECISWAPESSYSSISEATGSETKKSGKPGPFLLSGSRDKTIKMWDVSTGMCLMTLVGHDNWVRGVLFHSGGKFILSCADDKTLRVWDYKNKRCMKTLNAHEHFVTSLDFHKTAPYVVTGSVDQTVKVWECR
notes: LIS1, human, residues 81-410; source: Sf9, purified (IgG Sepharose, TEV, SEC); not shown: ZZ, N-terminal, cleaved; SNAPf, C-terminal, kept
B5: JIP3^1-560 (domain or fragment, human, UniProt Q9UPT6-1 1-560, looked up)
chain: MMEIQMDEGGGVVVYQDDYCSGSVMSERVSGLAGSIYREFERLIHCYDEEVVKELMPLVVNVLENLDSVLSENQEHEVELELLREDNEQLLTQYEREKALRRQAEEKFIEFEDALEQEKKELQIQVEHYEFQTRQLELKAKNYADQISRLEERESEMKKEYNALHQRHTEMIQTYVEHIERSKMQQVGGNSQTESSLPGRRKERPTSLNVFPLADGTVRAQIGGKLVPAGDHWHLSDLGQLQSSSSYQCPQDEMSESGQSSAAATPSTTGTKSNTPTSSVPSAAVTPLNESLQPLGDYGVGSKNSKRAREKRDSRNMEVQVTQEMRNVSIGMGSSDEWSDVQDIIDSTPELDMCPETRLDRTGSSPTQGIVNKAFGINTDSLYHELSTAGSEVIGDVDEGADLLGEFSVRDDFFGMGKEVGNLLLENSQLLETKNALNVVKNDLIAKVDQLSGEQEVLRGELEAAKQAKVKLENRIKELEEELKRVKSEAIIARREPKEEAEDVSSYLCTESDKIPMAQRRRFTRVEMARVLMERNQYKERLMELQEAVRWTEMIRASRE
notes: JIP3, human, UniProt Q9UPT6-1, residues 1-560, codon optimised for Sf9; The bacterial 2CT version would carry a C-terminal Strep-tag II; source: Sf9, purified (IgG Sepharose, TEV, SEC); not shown: His6, N-terminal, cleaved; ZZ, N-terminal, cleaved
B6: LIS1^mut (natural protein, human, UniProt P43034 1-410, looked up)
chain: MVASQEARDELNRAIADYLRSNGYEEAYSVFKKEAELDVNEELDKEYAGLLEEEWAAVAELAEEVMELRSKLNEAKEEFTSGGPLGQKRDPKEWIPRPPEKYALSGHRSPVTRVIFHPVFSVMVSASEDATIKVWDYETGDFERTLKGHTDSVQDISFDHSGKLLASCSADMTIKLWDFQGFECIRTMHGHDHNVSSVAIMPNGDHIVSASRDKTIKMWEVQTGYCVKTFTGHREWVRMVRPNQDGTLIASCSNDQTVRVWVVATKECKAELREHEHVVECISWAPESSYSSISEATGSETKKSGKPGPFLLSGSRDKTIKMWDVSTGMCLMTLVGHDNWVRGVLFHSGGKFILSCADDKTLRVWDYKNKRCMKTLNAHEHFVTSLDFHKTAPYVVTGSVDQTVKVWECR
notes: The last substitution is printed as E6 9R and read as E69R; source: Sf9, purified (IgG Sepharose, TEV, SEC); not shown: ZZ, N-terminal, cleaved
B7: GST-Psc-DCTN1(residues 350-547)-GFP-6xHis (domain or fragment, human (from the printed UniProt entry), UniProt Q14203-1 350-547, looked up)
chain: GSDGAASSYQLKQLEEQNARLKDALVRMRDLSSSEKQEHVKLQKLMEKKNQELEVVRQQRERLQEELSQAESTIDELKEQVDAALGAEEMVEMLTDRNLNLEEKVRELRETVGDLEAMNEMNDELQENARETELELREQLDMAGARVREAQKRVEAAQETVADYQQTIKKYRQLTAHLQDVNRELTNQQEASVERQQQ
notes: DCTN1/p150glued, UniProt Q14203-1, residues 350-547 (CC1B fragment); also called CC1B; p150-CC1B; source: SoluBL21 E. coli, purified (Ni-NTA, glutathione resin, SEC)

Experiments:
[1] = biological target: B7; assay: pull-down; GST pull-down on glutathione resin with GST-CC1A/B or CC1B as bait; LIS1, LIS1-N or MBP-DIC-N as prey; GST-PD buffer (50 mM HEPES pH 7.5, 100 mM KCl, 1 mM MgCl2, 1 mM DTT), room temperature; Coomassie-stained SDS-PAGE; details: both partners purified
[2] = biological target: T4, GST-Psc-DCTN1(residues 214-547)-GFP-6xHis (human (from the printed UniProt entry), UniProt Q14203-1 214-547); assay: as above; details: both partners purified
T4 construct: DCTN1/p150glued, UniProt Q14203-1, residues 214-547 (CC1 fragment: CC1A and CC1B); also called GST-CC1A/B; CC1A/B; source: SoluBL21 E. coli, purified (Ni-NTA, glutathione resin, SEC); not shown: GST, N-terminal, kept

[3] = biological target: T1, mouse JIP3 186-505_L383A/E386A; assay: pull-down; pull-downs with mouse JIP3 186-505 constructs, Arf6 and the recombinant pointed end complex (Fig. S3E); purified recombinant proteins; which protein was held on the resin is not told in the text shown; details: both partners purified
[4] = biological target: T2, mouse JIP3^185-505 (JIP3 residues …); assay: as above; details: both partners purified
[5] = biological target: the molecule itself; assay: SEC-MALS; 70 μL at 1 mg/mL, GF150 buffer, Superdex 200 5/150
[6] = biological target: T5, dynactin pointed end complex (ZZ-TEV-Arp11, p62, p25, p27) (human, UniProt Q9NZ32 1-417; Q9UJW0-1 1-460; Q9BTE1 1-182; O00399 1-190); assay: SEC; pointed end complex and JIP3^1-560 (or its Spindly mutant) mixed 1:1 at 10 μM final in GF150 buffer, 30 min at 4°C, Superose 6 Increase 3.2/300; details: both partners purified
T5 construct: Arp11, human, subunit of the dynactin pointed end complex; p62, human, isoform A, UniProt Q9UJW0-1; p25, human, subunit of the dynactin pointed end complex; p27, human, subunit of the dynactin pointed end complex; source: pAceBac1 vector; copies: + + +
T5 sequence (Q9NZ32 whole entry, chain 1 of 4, canonical isoform): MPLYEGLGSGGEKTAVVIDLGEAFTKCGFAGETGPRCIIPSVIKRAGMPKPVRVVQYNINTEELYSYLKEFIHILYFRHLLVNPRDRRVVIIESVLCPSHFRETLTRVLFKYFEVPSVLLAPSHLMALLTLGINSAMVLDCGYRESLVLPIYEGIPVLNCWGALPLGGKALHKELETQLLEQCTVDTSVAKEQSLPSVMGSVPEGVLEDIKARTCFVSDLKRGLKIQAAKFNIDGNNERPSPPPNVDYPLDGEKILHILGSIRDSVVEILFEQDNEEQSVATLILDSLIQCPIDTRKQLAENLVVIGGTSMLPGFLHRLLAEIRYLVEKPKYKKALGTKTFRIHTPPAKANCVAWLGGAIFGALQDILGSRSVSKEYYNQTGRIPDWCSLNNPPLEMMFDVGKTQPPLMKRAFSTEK
T5 sequence (Q9UJW0 whole entry, chain 2 of 4, canonical isoform): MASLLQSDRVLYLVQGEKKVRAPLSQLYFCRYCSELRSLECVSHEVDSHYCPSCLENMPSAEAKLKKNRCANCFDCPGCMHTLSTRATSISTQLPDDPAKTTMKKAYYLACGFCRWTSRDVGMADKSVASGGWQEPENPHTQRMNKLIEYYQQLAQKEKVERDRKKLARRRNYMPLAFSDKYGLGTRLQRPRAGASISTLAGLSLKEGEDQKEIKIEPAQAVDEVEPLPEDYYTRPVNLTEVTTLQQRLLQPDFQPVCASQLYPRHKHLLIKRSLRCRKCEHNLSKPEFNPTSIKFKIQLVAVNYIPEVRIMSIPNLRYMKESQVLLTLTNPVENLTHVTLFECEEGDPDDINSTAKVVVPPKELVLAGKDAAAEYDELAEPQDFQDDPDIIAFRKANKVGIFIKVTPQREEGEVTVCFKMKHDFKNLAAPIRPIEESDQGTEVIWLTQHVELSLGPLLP
T5 sequence (Q9BTE1 whole entry, chain 3 of 4, canonical isoform): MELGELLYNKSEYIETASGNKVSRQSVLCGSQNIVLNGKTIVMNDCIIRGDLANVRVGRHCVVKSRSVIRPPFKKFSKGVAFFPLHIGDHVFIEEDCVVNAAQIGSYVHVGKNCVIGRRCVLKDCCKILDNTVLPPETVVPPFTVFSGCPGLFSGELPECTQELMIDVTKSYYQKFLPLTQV
T5 sequence (O00399 whole entry, chain 4 of 4, canonical isoform): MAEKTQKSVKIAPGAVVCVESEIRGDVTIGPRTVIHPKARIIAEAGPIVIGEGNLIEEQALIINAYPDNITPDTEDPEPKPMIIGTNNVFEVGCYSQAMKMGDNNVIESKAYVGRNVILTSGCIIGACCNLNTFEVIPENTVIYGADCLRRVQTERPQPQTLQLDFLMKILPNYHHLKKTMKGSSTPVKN

LIS1 (full length human) = biological target: T3, LIS1 (full length human); assay: pull-down; GST pull-down on glutathione resin with GST-CC1A/B or CC1B as bait; LIS1, LIS1-N or MBP-DIC-N as prey; GST-PD buffer (50 mM HEPES pH 7.5, 100 mM KCl, 1 mM MgCl2, 1 mM DTT), room temperature; Coomassie-stained SDS-PAGE; details: both partners purified

B1: binds [1].

B2: binds [2].

B3: binds [3]; binds [4].

B4 was tested, and the “stoichiometry N” value [5] was 2.

B5: binds [6].

With B6 the “stoichiometry N” value [5] was 2.

B7: binds (LIS1 (full length human)).

Reference: paper PMC7615804, “Molecular mechanism of dynein-dynactin complex assembly by LIS1” (Science (New York, N.Y.), 2024)
